The values below come from doi:10.1101/2025.06.13.659133, “Anti-activin treatment increases T cell infiltration in breast and pancreatic tumours and promotes survival in a SMAD4-null mouse pancreatic cancer model” (bioRxiv, 2025).

In one assay the target is T1, ACVR2B-ECD (used in SPR) (UniProt Q13705 19-137).
T1 construct: also called ACVR2B extracellular domain (ECD)
T1 sequence (looked up): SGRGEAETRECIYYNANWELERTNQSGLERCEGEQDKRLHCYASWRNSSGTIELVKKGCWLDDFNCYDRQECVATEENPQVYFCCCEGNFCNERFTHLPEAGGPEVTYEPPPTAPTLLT
The assay is described as follows: SPR; activin A, TGF-β3 or BMP2 immobilised on a CM4 chip (EDC-NHS, up to 400 RU); antibodies or control binders flowed over; BIAcore T200; 10 mM CHES, 150 mM NaCl, 3 mM EDTA, 0.01% P20, pH 8.0; 1:1 kinetic model. As to conditions: both partners purified.

The target in another assay is T2, Noggin (UniProt Q13253 28-232).
T2 construct: Noggin, bought from Peprotech; source: bought: Peprotech
T2 sequence (looked up): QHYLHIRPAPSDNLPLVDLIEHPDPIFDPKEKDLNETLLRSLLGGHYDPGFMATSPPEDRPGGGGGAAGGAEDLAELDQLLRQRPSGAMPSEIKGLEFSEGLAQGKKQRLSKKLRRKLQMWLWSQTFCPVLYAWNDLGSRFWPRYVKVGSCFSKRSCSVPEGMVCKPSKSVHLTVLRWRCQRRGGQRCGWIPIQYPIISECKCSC
The assay is described as above. The settings on record: both partners purified.

B1: activin A (immobilised on the SPR chip) (ligand, UniProt P08476 311-426, looked up)
chain: GLECDGKVNICCKKQFFVSFKDIGWNDWIIAPSGYHANYCEGECPSHIAGTSGSSLSFHSTVINHYRMRGHSPFANLKSCCVPTKLRPMSMLYYDDGQNIIKKDIQNMIVEECGCS
As a reminder, the Kd is the constant that tells how readily two partners part at equilibrium. With B1, the Kd with ACVR2B-ECD (used in SPR) is 114 nM.

B2: BMP2 (ligand, UniProt P12643 283-396, looked up)
chain: QAKHKQRKRLKSSCKRHPLYVDFSDVGWNDWIVAPPGYHAFYCHGECPFPLADHLNSTNHAIVQTLVNSVNSKIPKACCVPTELSAISMLYLDENEKVVLKNYQDMVVEGCGCR
notes: BMP2, bought from Peprotech; source: bought: Peprotech
On to B2, for which the Kd with Noggin is 1.26 nM.
